How the values were obtained:
[1] = biological target: T1, PD-L1 Protein, Human, Recombinant (His Tag) (human, UniProt Q9NZQ7 19-239); test: SPR Biacore T200, antibody captured, PD-L1 His as analyte, 1:1 binding
T1 construct: Bought protein; also called QPP09.1; SinoBiologic 10084-H08H

[2] = biological target: T2, PD-L1 Protein, Cynomolgus, Recombinant (His Tag) (cynomolgus); test: as above
T2 construct: Bought protein; also called QPP10.1; SinoBiologic 90251-C08H

T1 sequence (Q9NZQ7 19-239 limits assumed): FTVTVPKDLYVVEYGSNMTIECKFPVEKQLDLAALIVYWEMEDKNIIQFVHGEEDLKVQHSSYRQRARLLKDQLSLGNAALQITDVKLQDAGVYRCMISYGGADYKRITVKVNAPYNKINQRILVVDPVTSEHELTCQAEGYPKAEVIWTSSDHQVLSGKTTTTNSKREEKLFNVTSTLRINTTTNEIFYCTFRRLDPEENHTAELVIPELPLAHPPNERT

Kd [1] [nM] | koff [1] [s⁻¹] | kon [1] [M⁻¹ s⁻¹] | Kd [2] [nM] | koff [2] [s⁻¹] | kon [2] [M⁻¹ s⁻¹] | Binder
10.7 | 0.004 | 375000 | 19.6 | 0.00416 | 212000 | QP325 (Fc fusion, Humanization design of QP1166; VHH-Fc; also called 1166-V3; QD325; not shown: human IgG1-FC constant region fused to the C terminal of the VHH) EVQLLESGGGLVQPGGSLRLSCAASGFTYGTYAMSWFRQAPGKGLEGVACIDIYGRTSYTDPVKGRFTISQDNSKNTLYLQMNSLRAEDTAVYYCAARDFGYCTASWVHEGFSRYWGQGTLVTVSS
2.63 | 0.00255 | 968000 | 5.6 | 0.00266 | 475000 | QP1166 (Fc fusion, Chimeric antibody before humanization; also called QD1166; nanobody QP1166; not shown: Fc part: called chimeric antibody, cloned in vector VH-FC-pQD) QVQLVESGGDSVQPGGSLRLSCAASGFTYGTYAMSWFRQAPGKEREGVACIDIYGRTSYTDPVKGRFTISQDNAKNTLYLQMNSLKPEDTAMYYCAARDFGYCTASWVHEGFSRYWGQGTQVTVSS
2.77 | 0.00379 | 1.37e+06 | 5.6 | 0.00401 | 715000 | QP1162 (Fc fusion, Chimeric antibody before humanization; also called QD1162; nanobody QP1162; not shown: Fc part: called chimeric antibody, cloned in vector VH-FC-pQD) QVQLVESGGGSVQSGGSLRLSCAASGFTYGTYAMSWFRQAPGKEREGVACIDIYGRASYTDPVKGRFTISQDNAKNTLYLQMNSLKPEDTAMYYCAARDFGYCTASWVHEGFSRYWGQGTQVTVSS

— patent publication US20230183352A1 (published 2023)
